Data from PMC2844805.

Tests used:
[1] = tested on: O=P(O)(O)OC[C@@H](O)[C@H]1O[C@@H](OP(=O)(O)O)[C@@H](O)[C@@H](O)[C@@H]1O; test: steady-state kinetics; assay type: biochemical, Bordetella bronchiseptica; conditions: Mg2+; pH 7.5; 25.0 °C
[2] = tested on: O=P(O)(O)OC[C@@H](O)[C@H]1O[C@H](OP(=O)(O)O)[C@@H](O)[C@@H](O)[C@@H]1O; test: steady-state kinetics; assay type: biochemical, Bordetella bronchiseptica; conditions: Mg2+; pH 7.5; 25.0 °C
steady-state kinetics [3] = substrate: O=P(O)(O)OC[C@@H](O)[C@H]1O[C@@H](OP(=O)(O)O)[C@@H](O)[C@@H](O)[C@@H]1O; test: steady-state kinetics; assay type: biochemical, Mesorhizobium japonicum; conditions: Mg2+; pH 7.5; 25.0 °C
steady-state kinetics [4] = substrate: O=P(O)(O)OC[C@@H](O)[C@H]1O[C@H](OP(=O)(O)O)[C@@H](O)[C@@H](O)[C@@H]1O; test: steady-state kinetics; assay type: biochemical, Mesorhizobium japonicum; conditions: Mg2+; pH 7.5; 25.0 °C
purified protein [5] = substrate: O=P(O)(O)OC[C@@H](O)[C@H]1O[C@@H](OP(=O)(O)O)[C@@H](O)[C@@H](O)[C@@H]1O; test: purified protein; assay type: biochemical, Escherichia coli; conditions: Mg2+ C([…])phosphate selectively removed; pH 7.5; 25.0 °C
purified protein [6] = substrate: O=P(O)(O)OC[C@@H](O)[C@H]1O[C@H](OP(=O)(O)O)[C@@H](O)[C@@H](O)[C@@H]1O; test: purified protein; assay type: biochemical, Escherichia coli; conditions: Mg2+ C([…])phosphate selectively removed; pH 7.5; 25.0 °C
steady-state kinetics [7] = substrate: O=P(O)(O)OC[C@@H](O)[C@H]1O[C@@H](OP(=O)(O)O)[C@@H](O)[C@@H](O)[C@@H]1O; test: steady-state kinetics; assay type: biochemical, Bacteroides thetaiotaomicron; conditions: Mg2+; pH 7.5; 25.0 °C
steady-state kinetics [8] = substrate: O=P(O)(O)OC[C@@H](O)[C@H]1O[C@H](OP(=O)(O)O)[C@@H](O)[C@@H](O)[C@@H]1O; test: steady-state kinetics; assay type: biochemical, Bacteroides thetaiotaomicron; conditions: Mg2+; pH 7.5; 25.0 °C

D-glycero-D-manno-heptose-1β,7-bisphosphate phosphatase (GmhB) (Bordetella bronchiseptica RB50)
Km [1]: 6.9 ± 0.5 µM | kcat [1]: 22 ± 0.5 s⁻¹ | kcat/Km [1]: 3.2e+06 M⁻¹ s⁻¹ | Km [2]: 280 ± 30 µM | kcat [2]: 5.9 ± 0.2 s⁻¹ | kcat/Km [2]: 21000 M⁻¹ s⁻¹

B1: D-glycero-D-manno-heptose-1,7-bisphosphate phosphatase (GmhB) (Mesorhizobium japonicum MAFF 303099) (protein)
chain: MADKTGTPHPLTEPGVWIERIGGRVFPPHLPALFLDRDGTINVDTDYPSDPAEIVLRPQMLPAIATANRAGIPVVVVTNQSGIARGYFGWSAFAAVNGRVLELLREEGVFVDMVLACAYHEAGVGPLAIPDHPMRKPNPGMLVEAGKRLALDLQRSLIVGDKLADMQAGKRAGLAQGWLVDGEAAVQPGFAIRPLRDSSELGDLLAAIETLGRDNRS
Km (steady-state kinetics [3]): 13 ± 0.2 µM | kcat (steady-state kinetics [3]): 18 ± 0.2 s⁻¹ | kcat/Km (steady-state kinetics [3]): 1.4e+06 M⁻¹ s⁻¹ | Km (steady-state kinetics [4]): 58 ± 1 µM | kcat (steady-state kinetics [4]): 4.4 ± 0.1 s⁻¹ | kcat/Km (steady-state kinetics [4]): 76000 M⁻¹ s⁻¹

B2: D-glycero-D-manno-heptose-1,7-bisphosphate phosphatase (GmhB) (Escherichia coli K-12) (protein)
chain: MAKSVPAIFLDRDGTINVDHGYVHEIDNFEFIDGVIDAMRELKKMGFALVVVTNQSGIARGKFTEAQFETLTEWMDWSLADRDVDLDGIYYCPHHPQGSVEEFRQVCDCRKPHPGMLLSARDYLHIDMAASYMVGDKLEDMQAAVAANVGTKVLVRTGKPITPEAENAADWVLNSLADLPQAIKKQQKPAQ
Km (purified protein [5]): 5.0 ± 0.1 µM | kcat (purified protein [5]): 35.7 ± 0.2 s⁻¹ | kcat/Km (purified protein [5]): 7e+06 M⁻¹ s⁻¹ | Km (purified protein [6]): 67 ± 1 µM | kcat (purified protein [6]): 4.6 ± 0.1 s⁻¹ | kcat/Km (purified protein [6]): 70000 M⁻¹ s⁻¹

B3: D-glycero-D-manno-heptose-1,7-bisphosphate phosphatase (GmhB) (Bacteroides thetaiotaomicron VPI-5482) (protein)
chain: MRLQDIDVTGFETLLLDRDGVVNRLRPDDYVKKWEEFEFLPGVLEILKAWNTHFKYIFIVTNQRGVGKEIMSEEDLKHIHERMISEVKNYGGRIDRIYYCTALTDSDINRKPGIGMFLQILRDYPDIDKAKCLMIGDSDSDIKFAKNCGIVGIKVI
Km (steady-state kinetics [7]): 86 ± 1 µM | kcat (steady-state kinetics [7]): 13 ± 1 s⁻¹ | kcat/Km (steady-state kinetics [7]): 150000 M⁻¹ s⁻¹ | Km (steady-state kinetics [8]): 33 ± 1 µM | kcat (steady-state kinetics [8]): 29 ± 1 s⁻¹ | kcat/Km (steady-state kinetics [8]): 880000 M⁻¹ s⁻¹
